Results published in patent US5792742.

Key:
[1] = molecular target: fibrin (fibrinogen dried on microtiter wells and converted with thrombin); assay: direct ELISA on fibrin-coated wells (FIGS. 27A and 28A)
[2] = molecular target: fibrin-SEPHAROSE (bovine fibrinogen cross-linked to CNBr-activated SEPHAROSE and converted to fibrin with human thrombin) (bovine) (UniProt P02672); assay: fibrin-SEPHAROSE chromatography of 35S-labeled COS supernatant, densitometry of the autoradiogram
[3] = molecular target: fibrin (fibrinogen dried on microtiter wells and converted with thrombin); assay: competitive ELISA on fibrin-coated wells, competitor biotinylated Fn (2.3 nM)
[4] = molecular target: fibrin (fibrinogen dried on microtiter wells and converted with thrombin); assay: direct ELISA on fibrin-coated plates (FIG. 27A)
[5] = molecular target: fibrin (fibrinogen dried on microtiter wells and converted with thrombin); assay: competitive ELISA on fibrin-coated wells, reference intact Fn
[6] = molecular target: fibrin (fibrinogen dried on microtiter wells and converted with thrombin); assay: competitive ELISA on fibrin-coated wells, Cheng and Prussoff equation from the IC50
[7] = molecular target: fibrin (fibrinogen dried on microtiter wells and converted with thrombin); assay: competitive ELISA on fibrin-coated wells, competitor biotinylated Fn (2.3 nM), 10 µM of the fragment
[8] = molecular target: fibrin (fibrinogen dried on microtiter wells and converted with thrombin); assay: competitive ELISA on fibrin-coated plates, competitor Fn (2.3 nM)
[9] = molecular target: fibrin (fibrinogen dried on microtiter wells and converted with thrombin); assay: competitive ELISA on fibrin-coated wells, competitor biotinylated Fn (FIG. 29)
[10] = molecular target: fibrin (fibrinogen dried on microtiter wells and converted with thrombin); assay: competitive ELISA against intact Fn on fibrin
[11] = molecular target: fibrin (fibrinogen dried on microtiter wells and converted with thrombin); assay: competitive ELISA on fibrin-coated wells, competitor fibronectin (FIG. 29)
[12] = molecular target: fibrin (fibrinogen dried on microtiter wells and converted with thrombin); assay: competitive ELISA on fibrin-coated wells, competitor biotinylated Fn (2.3 nM), 10 µM of the module pair
[13] = molecular target: fibrin (fibrinogen dried on microtiter wells and converted with thrombin); assay: displacement of bound 125I-11 kDa from fibrin-coated wells by 2,000 nM unlabeled 11 kDa
[14] = molecular target: fibrin (fibrinogen dried on microtiter wells and converted with thrombin); assay: competition on fibrin-coated wells, competitor 125I-11 kDa (90 nM)
fibrinogen-SEPHAROSE = assay: binding to a fibrinogen-SEPHAROSE column at 37° C. (material eluted with ethylene glycol)
[15] = molecular target: fibrin (fibrinogen dried on microtiter wells and converted with thrombin); assay: direct ELISA on fibrin-coated wells, reference intact fibronectin
[16] = molecular target: fibrin (fibrinogen dried on microtiter wells and converted with thrombin); assay: competitive ELISA on fibrin-coated plates, competitor Fn (2.3 nM), 50,000 molar excess
[17] = molecular target: fibrin (fibrinogen dried on microtiter wells and converted with thrombin); assay: direct binding of 125I-11 kDa to fibrin-coated wells (15 ng fibrin)
[18] = molecular target: fibrin (fibrinogen dried on microtiter wells and converted with thrombin); assay: direct binding of 125I-11 kDa to fibrin-coated removable wells, non-linear regression, one binding site model

biotinylated fibronectin
concentration at saturation of binding [1]: 4.5 nM

^35 S-methionine labeled recombinant ^10 F1-end (expressed in COS cells) (peptide)
% of bound protein released by warming to 22° C. [2]: 35%
% of bound protein that required 6M urea for elution [2]: 65%

human plasma fibronectin (intact)
IC50 [3]: 20 nM
concentration for complete inhibition [3]: 2.2 µM
concentration at 75% of the maximum binding [4]: 2.3 nM
concentration at saturation of binding [4]: 4.54 nM

25.9 kDa N-terminal proteolytic fibrin-binding fragment of fibronectin (peptide)
IC50 [3]: 150 nM
fold higher concentration than intact Fn for 50% inhibition [5]: 7.5 fold
Ki [6]: 145 nM
maximal % inhibition of biotinylated Fn binding [7]: 75%

recombinant ^4 F1.^5 F1 module pair of fibronectin (expressed in Saccharomyces cerevisiae) (peptide)
% inhibition of Fn binding at saturating concentration [8]: 70%
IC50 [8]: 750 nM
concentration at maximum inhibition [8]: 10 µM
IC50 [3]: 700 nM
maximum % inhibition of Fn binding [9]: 67%
% inhibition (so in the source) [10]: 30%
Ki [6]: 695 nM
% blocking of fibronectin binding [11]: 36%
maximal % inhibition of biotinylated Fn binding [12]: 67%

11 kDa C-terminal fibrin-binding fragment of fibronectin (peptide)
% of bound iodinated 11 kDa displaced [13]: 42%
IC50 [14]: 605 nM
concentration at maximum inhibition [14]: 4 µM
% of the applied material bound (fibrinogen-SEPHAROSE): 4 to 5%
times more bound than intact fibronectin (mole-per-mole) [15]: 20 times

recombinant ^10 F1 module of fibronectin (peptide)
% inhibition of biotinylated Fn binding [3]: 10%

recombinant ^7 F1 module of fibronectin (peptide)
% inhibition of Fn binding [16]: < 20%

^125 I-11 kDa fibrin-binding peptide
concentration at 50% saturation [17]: 90 nM
Kd [18]: 154 nM
